T1: Human CD138 His (Homo sapiens, UniProt P18827)
T1 construct: His
T1 sequence (P18827 23-310): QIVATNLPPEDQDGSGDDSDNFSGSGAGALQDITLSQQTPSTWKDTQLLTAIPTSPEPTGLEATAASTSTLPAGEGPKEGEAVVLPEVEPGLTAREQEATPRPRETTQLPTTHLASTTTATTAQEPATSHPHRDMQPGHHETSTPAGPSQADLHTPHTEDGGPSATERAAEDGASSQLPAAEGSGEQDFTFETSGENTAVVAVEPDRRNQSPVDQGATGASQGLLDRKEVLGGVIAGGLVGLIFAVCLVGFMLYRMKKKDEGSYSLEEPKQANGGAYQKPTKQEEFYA

B1: F6 ckf-rep: humanized anti-CD138 antibody; VH SEQ ID NO:90, VL SEQ ID NO:43 (antibody, V domains shown)
VH: QVQLVQSGAEVVKPGASVKLSCKASGYTFTSYYLYWVKKAPGQGLDWIGEIYPRSGGTNINEKFLSRVTLTADTSTSTAYLELSSLTSEDTAVYYCTRSLLYWGQGTTLTVSS
VL: DVVMTQSPLSLSVTLGQPASISCKSSQSLLASDGKTYLNWLQQRPGQSPRRLIYLVSKLDSGVPNRFSGSGSGTDFTLQISRVEAEDVGLYYCWQGAHFPFTFGSGTKLEIKR
modifications: Humanized Heavy chain variable region; Humanized Light chain variable region
B2: F6 f1ka-rep: humanized anti-CD138 antibody; VH SEQ ID NO:91, VL SEQ ID NO:42 (antibody, V domains shown)
VH: QVQLQQSGAEVVKPGASVKLSCKASGYTFTSYYLYWVKKAPGQGLDWIGEIYPRSGGTNINEKFLSRVTLTADTSTSTAYMDLSSLTSEDTAVYYCTRSLLYWGQGTTLTVSS
VL: DVVMTQTPLSLSVTPGQPASISCKSSQSLLASDGKTYLNWLLQRPGQSPKRLIYLVSKLDSGVPNRFSGSGSGTDFTLQISRVEAEDVGLYYCMQGAHFPFTFGGGTKVEIKR
modifications: Humanized Heavy chain variable region; Humanized Light chain variable region
B3: F6 f2kf-rep: humanized anti-CD138 antibody; VH SEQ ID NO:92, VL SEQ ID NO:43 (antibody, V domains shown)
VH: QVQLQQSGAEVVKPGASVKLSCKASGYTFTSYYLYWVKKAPGQGLDWIGEIYPRSGGTNINEKFLSRVTITADESTSTVYMQLSSLTSEDSAVYYCTRSLLYWGQGTTLTVSS
VL: DVVMTQSPLSLSVTLGQPASISCKSSQSLLASDGKTYLNWLQQRPGQSPRRLIYLVSKLDSGVPNRFSGSGSGTDFTLQISRVEAEDVGLYYCWQGAHFPFTFGSGTKLEIKR
modifications: Humanized Heavy chain variable region; Humanized Light chain variable region
B4: F6 f1kf-rep: humanized anti-CD138 antibody; VH SEQ ID NO:91, VL SEQ ID NO:43 (antibody, V domains shown)
VH: QVQLQQSGAEVVKPGASVKLSCKASGYTFTSYYLYWVKKAPGQGLDWIGEIYPRSGGTNINEKFLSRVTLTADTSTSTAYMDLSSLTSEDTAVYYCTRSLLYWGQGTTLTVSS
VL: DVVMTQSPLSLSVTLGQPASISCKSSQSLLASDGKTYLNWLQQRPGQSPRRLIYLVSKLDSGVPNRFSGSGSGTDFTLQISRVEAEDVGLYYCWQGAHFPFTFGSGTKLEIKR
modifications: Humanized Heavy chain variable region; Humanized Light chain variable region
B5: F6 aks-rep: humanized anti-CD138 antibody; VH SEQ ID NO:89, VL SEQ ID NO:41 (antibody, V domains shown)
VH: QVQLVQSGAEVVKPGASVKLSCKASGYTFTSYYLYWVKKAPGQGLDWIGEIYPRSGGTNYAEKFQGRVTLTADTSTSTAYLELSSLTSEDTAVYYCTRSLLYWGQGTTLTVSS
VL: DVVMTQTPLSLSVTPGQPASISCKSSQSLLASDGKTYLNWLLQRPGQSPKRLIYLVSKLDSGVPNRFSGSGSGTDFTLQISRVEAEDVGLYYCWQGAHFPFTFGSGTKLEIKR
modifications: Humanized Heavy chain variable region; Humanized Light chain variable region
B6: F6 cka-rep: humanized anti-CD138 antibody; VH SEQ ID NO:90, VL SEQ ID NO:42 (antibody, V domains shown)
VH: QVQLVQSGAEVVKPGASVKLSCKASGYTFTSYYLYWVKKAPGQGLDWIGEIYPRSGGTNINEKFLSRVTLTADTSTSTAYLELSSLTSEDTAVYYCTRSLLYWGQGTTLTVSS
VL: DVVMTQTPLSLSVTPGQPASISCKSSQSLLASDGKTYLNWLLQRPGQSPKRLIYLVSKLDSGVPNRFSGSGSGTDFTLQISRVEAEDVGLYYCMQGAHFPFTFGGGTKVEIKR
modifications: Humanized Heavy chain variable region; Humanized Light chain variable region
B7: F6 f2ks-rep: humanized anti-CD138 antibody; VH SEQ ID NO:92, VL SEQ ID NO:41 (antibody, V domains shown)
VH: QVQLQQSGAEVVKPGASVKLSCKASGYTFTSYYLYWVKKAPGQGLDWIGEIYPRSGGTNINEKFLSRVTITADESTSTVYMQLSSLTSEDSAVYYCTRSLLYWGQGTTLTVSS
VL: DVVMTQTPLSLSVTPGQPASISCKSSQSLLASDGKTYLNWLLQRPGQSPKRLIYLVSKLDSGVPNRFSGSGSGTDFTLQISRVEAEDVGLYYCWQGAHFPFTFGSGTKLEIKR
modifications: Humanized Heavy chain variable region; Humanized Light chain variable region
B8: F6 aka-rep: humanized anti-CD138 antibody; VH SEQ ID NO:89, VL SEQ ID NO:42 (antibody, V domains shown)
VH: QVQLVQSGAEVVKPGASVKLSCKASGYTFTSYYLYWVKKAPGQGLDWIGEIYPRSGGTNYAEKFQGRVTLTADTSTSTAYLELSSLTSEDTAVYYCTRSLLYWGQGTTLTVSS
VL: DVVMTQTPLSLSVTPGQPASISCKSSQSLLASDGKTYLNWLLQRPGQSPKRLIYLVSKLDSGVPNRFSGSGSGTDFTLQISRVEAEDVGLYYCMQGAHFPFTFGGGTKVEIKR
modifications: Humanized Heavy chain variable region; Humanized Light chain variable region
B9: F6 f1ks-rep: humanized anti-CD138 antibody; VH SEQ ID NO:91, VL SEQ ID NO:41 (antibody, V domains shown)
VH: QVQLQQSGAEVVKPGASVKLSCKASGYTFTSYYLYWVKKAPGQGLDWIGEIYPRSGGTNINEKFLSRVTLTADTSTSTAYMDLSSLTSEDTAVYYCTRSLLYWGQGTTLTVSS
VL: DVVMTQTPLSLSVTPGQPASISCKSSQSLLASDGKTYLNWLLQRPGQSPKRLIYLVSKLDSGVPNRFSGSGSGTDFTLQISRVEAEDVGLYYCWQGAHFPFTFGSGTKLEIKR
modifications: Humanized Heavy chain variable region; Humanized Light chain variable region
B10: F6 akf-rep: humanized anti-CD138 antibody; VH SEQ ID NO:89, VL SEQ ID NO:43 (antibody, V domains shown)
VH: QVQLVQSGAEVVKPGASVKLSCKASGYTFTSYYLYWVKKAPGQGLDWIGEIYPRSGGTNYAEKFQGRVTLTADTSTSTAYLELSSLTSEDTAVYYCTRSLLYWGQGTTLTVSS
VL: DVVMTQSPLSLSVTLGQPASISCKSSQSLLASDGKTYLNWLQQRPGQSPRRLIYLVSKLDSGVPNRFSGSGSGTDFTLQISRVEAEDVGLYYCWQGAHFPFTFGSGTKLEIKR
modifications: Humanized Heavy chain variable region; Humanized Light chain variable region
B11: F6 f2ka-rep: humanized anti-CD138 antibody; VH SEQ ID NO:92, VL SEQ ID NO:42; two lots (antibody, V domains shown)
VH: QVQLQQSGAEVVKPGASVKLSCKASGYTFTSYYLYWVKKAPGQGLDWIGEIYPRSGGTNINEKFLSRVTITADESTSTVYMQLSSLTSEDSAVYYCTRSLLYWGQGTTLTVSS
VL: DVVMTQTPLSLSVTPGQPASISCKSSQSLLASDGKTYLNWLLQRPGQSPKRLIYLVSKLDSGVPNRFSGSGSGTDFTLQISRVEAEDVGLYYCMQGAHFPFTFGGGTKVEIKR
modifications: Humanized Heavy chain variable region; Humanized Light chain variable region
notes: humanized anti-CD138 antibody; two lots
B12: F13P14D3: murine anti-CD138 hybridoma antibody; VH SEQ ID NO:86, VL SEQ ID NO:38 (antibody, listed as Mus musculus, V domains shown)
VH: EVQLVESGGGLVQPKGSLKLSCATSGFTFNTYAMNWVRQAPGKGLEWVARIRSKSNNYATYYVDSVKDRFTISRDDSQSTVHLQMNNLKTEDTAIYYCVTDYGHVYFDVWGAGTTVTVSS
VL: NIVMTQSPKSMSMSVGQRVTLSCKASENVGSYVSWYQQKPEQSPKLLIYGASNRNTGVPDRFTGSGSATDFTLTISSVQAEDLADYHCGQSSRYPLTFGGGTKLELKR
B13: F12P7G11: murine anti-CD138 hybridoma antibody; VH SEQ ID NO:85, VL SEQ ID NO:37 (antibody, listed as Mus musculus, V domains shown)
VH: QVQLQQSGAELARPGASVKLSCKASGYTFSSHWMQWVKQRPGQGLEWIGAIYPGDGDTRFTQKFKGKATLTADKSSNTAYMQLSSLASEDSAVYYCARGIYYDRSRAMDYWGQGTSVTVSS
VL: QIVLSQSPAILSASPGEKVTMTCRASSSVNYMHWYQQKPGSSPKHWIYATSYLASGVPARFSGSGSGTSYSLTISRVEAEDAATYYCQQWSSDPLTFGAGTKLELKR

Test system: not listed separately
Assay: Size exclusion chromatography (SEC), percent monomer
Format: physicochemical
Conditions: Table 19, after protein A purification
Procedure: The antibodies were purified utilizing pH dependent, protein A purification (HiTrap MabSelect SuRe 5 mL). After purification, the antibodies were buffer exchanged into 1× DPBS using zeba spin columns. The recovery and relative stability as determined by size exclusion chromatography (SEC) analysis varied between the humanized antibodies (SEC profiles not shown). The nomenclature sometimes takes the form of hF6 xky-rep where h stands for humanized, F6 stands for F12P16F6-derived, x stands for the first letter of the first procedure used to generate the humanized heavy chain sequence (e.g., x can be a=abb, s=sdr, f=fra, or c=cdr), k stands for kappa light chain, and y stands for the first letter of the first procedure used to generate the humanized light chain sequence (a=abb, s=sdr, f=fra, c=cdr).

In order of falling “SEC % Monomer” value:
1. B9  95.6%
2. B10  95.4%
3. B1  95.3%
4. B5  95.2%
5. B3  95.1%
6. B4  94.3%
7. B2  92.9%
8. B6  88.8%
9. B7  77.6%
10. B8  75.2%

Same assay, conditions: Table 19, after protein A purification; listed as F6 f2ka-rep (Lot 1)

For B11, the “SEC % Monomer” value was 79.1%.

Same assay, conditions: Table 19, after protein A purification; listed as F6 f2ka-rep (Lot 2)

In the case of B11, the “SEC % Monomer” value is reported as 95%.

Target: T1, Human CD138 His
Assay: SPR kinetic binding, human CD138
Conditions: bivalent analyte fit
Procedure: Murine IgGs were purified from the hybridoma supernatants and the IgGs were subject to SPR (surface plasmon resonance) for kinetic binding measurements. Human or mouse CD138 His was immobilized on a GLM chip at […] on a BioRad Proteon. […] KDs were measured using bivalent analyte fit.

In order of rising “hCD138 ka” value:
1. B12  107000 M⁻¹ s⁻¹
2. B13  3.81e+06 M⁻¹ s⁻¹

In order of falling “hCD138 kd” value:
1. B13  0.033 s⁻¹
2. B12  0.00104 s⁻¹
